B1: FITC-thrombin DNA aptamer with T15 linker (30 mer) (ssDNA)
DNA: GGTTGGTGTGGTTGGTTTTTTTTTTTTTTT
B2: (BAP)-aptamer, single label (ssDNA)
DNA: GGTTGGTGTGGTTGGTTTTTTTTTTTTTTT
modifications: 3' single Z-QG-ddUTP crosslinked to NK14-BAP
B3: (BAP)-(PEG)3-aptamer, single label (ssDNA)
DNA: GGTTGGTGTGGTTGGTTTTTTTTTTTTTTT
modifications: 3' single Z-QG-(PEG)3-ddUTP crosslinked to NK14-BAP

Molecular target: thrombin (UniProt P00734;P00734 P00734:328-363,P00734:364-622)
Test: ELONA

Binder | binding result
B1 | binds
B2 | binds
B3 | binds

From patent publication US20150284762, “METHOD FOR PRODUCING PROTEIN-NUCLEIC ACID CONJUGATE, AND METHOD FOR DETECTING TARGET SUBSTANCE” (KYUSHU UNIVERSITY, NATIONAL UNIVERSITY CORPORATION, published 2015)
